Test in all cases: cell_activity
The test system of data set [1] is Il2rg ZFN left (synthetic construct). The following applies: pair with ZFN right; mRNA electroporated into rat zygotes, 3/4 offspring; Surveyor assay positive in rat fibroblasts; 37% and 73% in Tests 5-1 and 5-2.
Data set [2] relates to Il2rg ZFN right (synthetic construct). As to conditions: pair with ZFN left; mRNA electroporated into rat zygotes, 3/4 offspring; Surveyor assay positive in rat fibroblasts; 37% and 73% in Tests 5-1 and 5-2.
Data set [3] concerns Il2rg TALEN right (synthetic construct). The following applies: pair with TALEN left; mRNA electroporated into rat zygotes, 3/17 offspring; Surveyor assay positive in rat fibroblasts.
Data set [4] deals with Il2rg TALEN left (synthetic construct). The following applies: pair with TALEN right; mRNA electroporated into rat zygotes, 3/17 offspring; Surveyor assay positive in rat fibroblasts.

This is an account of results in patent US20160215297.

The sequence “GCATAGTGAGGTTGG (double strand) [Il2rg ZFN left binding site]” had an activity (% mutant offspring) in data set [1] of 75.
As for “GGTATGAGAAGGGGG (double strand) [Il2rg ZFN right binding site]”, the activity (% mutant offspring) in data set [2] turned out to be 75.
In turn, “TCCAAGTGCAATTCATATACT (double strand) [Il2rg TALEN right binding site]” showed an activity (% mutant offspring) in data set [3] of 18.
“TCCCAGAGGTTCAATGCT (double strand) [Il2rg TALEN left binding site]” returned an activity (% mutant offspring) in data set [4] of 18.
